The record followed here is US20240360474 (Scribe Therapeutics Inc., published 2024).

One data set has as its target T1, CasX variant 119 (synthetic construct).
T1 chain: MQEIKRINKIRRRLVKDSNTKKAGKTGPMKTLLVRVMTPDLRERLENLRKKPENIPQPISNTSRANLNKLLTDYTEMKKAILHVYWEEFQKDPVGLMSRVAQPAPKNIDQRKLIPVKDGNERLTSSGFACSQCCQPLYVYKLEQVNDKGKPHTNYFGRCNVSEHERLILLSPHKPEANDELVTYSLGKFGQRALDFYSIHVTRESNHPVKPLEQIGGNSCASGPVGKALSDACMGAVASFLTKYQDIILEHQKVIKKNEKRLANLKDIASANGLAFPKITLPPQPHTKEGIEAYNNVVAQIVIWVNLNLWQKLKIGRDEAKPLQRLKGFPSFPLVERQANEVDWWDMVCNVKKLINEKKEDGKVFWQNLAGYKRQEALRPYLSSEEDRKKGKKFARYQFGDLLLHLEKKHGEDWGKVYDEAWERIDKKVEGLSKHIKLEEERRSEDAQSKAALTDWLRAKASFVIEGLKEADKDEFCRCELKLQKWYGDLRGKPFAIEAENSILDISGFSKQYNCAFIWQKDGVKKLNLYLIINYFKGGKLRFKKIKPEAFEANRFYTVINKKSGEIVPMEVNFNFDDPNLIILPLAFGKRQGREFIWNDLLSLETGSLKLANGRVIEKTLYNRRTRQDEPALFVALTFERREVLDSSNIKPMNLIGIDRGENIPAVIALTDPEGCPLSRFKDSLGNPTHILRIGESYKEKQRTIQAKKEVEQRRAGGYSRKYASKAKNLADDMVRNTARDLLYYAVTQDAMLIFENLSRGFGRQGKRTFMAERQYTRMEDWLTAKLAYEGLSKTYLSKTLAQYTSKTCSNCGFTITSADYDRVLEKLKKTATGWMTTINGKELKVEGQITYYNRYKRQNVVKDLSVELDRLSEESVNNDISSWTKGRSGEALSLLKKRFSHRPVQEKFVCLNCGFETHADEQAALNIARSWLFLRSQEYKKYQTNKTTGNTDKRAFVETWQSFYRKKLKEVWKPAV
Kind of data set: cleavage_in_vitro.

A further data set addresses T2, CasX variant 438 (synthetic construct).
T2 chain: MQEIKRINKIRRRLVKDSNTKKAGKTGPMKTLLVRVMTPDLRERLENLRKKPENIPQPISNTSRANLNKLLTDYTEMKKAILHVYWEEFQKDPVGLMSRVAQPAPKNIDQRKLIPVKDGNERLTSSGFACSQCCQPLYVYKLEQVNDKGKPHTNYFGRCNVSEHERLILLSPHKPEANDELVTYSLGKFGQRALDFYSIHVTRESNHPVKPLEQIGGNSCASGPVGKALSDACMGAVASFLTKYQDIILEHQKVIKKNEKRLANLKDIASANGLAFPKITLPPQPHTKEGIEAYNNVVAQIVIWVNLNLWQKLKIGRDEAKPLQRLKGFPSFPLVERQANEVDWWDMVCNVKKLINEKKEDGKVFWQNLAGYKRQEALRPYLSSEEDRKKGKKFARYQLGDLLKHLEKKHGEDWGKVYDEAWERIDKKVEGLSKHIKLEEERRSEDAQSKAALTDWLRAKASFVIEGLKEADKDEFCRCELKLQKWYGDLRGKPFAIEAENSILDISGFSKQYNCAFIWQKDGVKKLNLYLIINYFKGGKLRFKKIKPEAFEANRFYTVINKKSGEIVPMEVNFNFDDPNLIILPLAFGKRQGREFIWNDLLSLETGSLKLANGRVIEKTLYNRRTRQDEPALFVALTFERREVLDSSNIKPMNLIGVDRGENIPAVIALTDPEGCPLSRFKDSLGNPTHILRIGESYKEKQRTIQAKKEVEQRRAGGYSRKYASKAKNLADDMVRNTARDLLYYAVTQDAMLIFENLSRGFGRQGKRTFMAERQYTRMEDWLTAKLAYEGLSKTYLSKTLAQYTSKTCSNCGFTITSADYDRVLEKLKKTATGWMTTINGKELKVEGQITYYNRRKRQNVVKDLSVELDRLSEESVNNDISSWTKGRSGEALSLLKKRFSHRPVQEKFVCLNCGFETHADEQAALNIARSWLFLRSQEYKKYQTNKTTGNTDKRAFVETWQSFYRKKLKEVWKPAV
Kind of data set: cleavage_in_vitro.

B1: gRNA scaffold 174 + spacer 7.37 ; 7.37 TTC PAM target (ssRNA ; dsDNA)
RNA: ACUGGCGCUUUUAUCUGAUUACUUUGAGAGCCAUCACCAGCGACUAUGUCGUAGUGGGUAAAGCUCCCUCUUCGGAGGGAGCAUCAAAGGGGCCGAGAUGUCUCGCUCC
DNA 1: TGAAGCTGACAGCATTCGGGCCGAGATGTCTCGCTCCGTGGCCTTAGCTGTGCTCGCGCT
DNA 2: AGCGCGAGCACAGCTAAGGCCACGGAGCGAGACATCTCGGCCCGAATGCTGTCAGCTTCA
Regarding B1, the figures for the activity in the data set with CasX variant 119 and in the data set with CasX variant 438 were 8.33 min⁻¹ and 4.94 min⁻¹, respectively.
